Data from paper PMC8913300, “Two distinct classes of cochaperones compete for the EEVD motif in heat shock protein 70 to tune its chaperone activities” (The Journal of Biological Chemistry, 2022).
Several values for one entry are separate records, joined by “and”; a condition that tells them apart may be missing. Equal entries are not always repeated. No end group written: not given here.

B1: C terminus of Hsc70 interacting protein (CHIP) (enzyme, human, UniProt Q9UNE7 1-303, looked up)
chain: MKGKEEKEGGARLGAGGGSPEKSPSAQELKEQGNRLFVGRKYPEAAACYGRAITRNPLVAVYYTNRALCYLKMQQHEQALADCRRALELDGQSVKAHFFLGQCQLEMESYDEAIANLQRAYSLAKEQRLNFGDDIPSALRIAKKKRWNSIEERRIHQESELHSYLSRLIAAERERELEECQRNHEGDEDDSHVRAQQACIEAKHDKYMADMDELFSQVDEKRKKRDIPDYLCGKISFELMREPCITPSGITYDRKDIEEHLQRVGHFDPVTRSPLTQEQLIPNLAMKEVIDAFISENGWVEDY
notes: recombinant human CHIP, E3 ubiquitin ligase with a TPR domain; source: E. coli BL21(DE3), purified (Ni-NTA, TEV cleavage, SEC); not shown: His6, N-terminal, cleaved
B6: Hsp72 T636E tracer FITC-Ahx-GSGPEIEEVD (peptide)
peptide: GSGPEIEEVD-OH
modifications: not fully specified (N-terminus); printed as FITC-Ahx-GSGPEIEEVD; also: methods name the dye 5-FAM, not FITC
notes: also called phosphomimetic T636E Hsp72 fluorescent tracer; source: synthetic peptide, bought: GenScript

What was measured:
Conditions in all cases: both partners purified
[1] = target: B6; assay: fluorescence polarisation; saturation binding; 20 nM fluorescent Hsp72 tracer, CHIP titrated in 2x dilutions (110-0.013 μM); 25 mM Hepes, 50 mM KCl, 0.01% Triton X-100, pH 7.4; 30 min at room temperature
[2] = target: B1; assay: fluorescence polarisation; competition; 100 μM unlabeled peptide, 1.58 μM CHIP, 20 nM Hsp72 tracer; 50 mM Hepes pH 7.4, 50 mM KCl, 0.01% Triton X-100; 30 min at room temperature
DnaJB4 [3] = target: T1, DnaJB4 (human, UniProt Q9UDY4 1-337); assay: fluorescence polarisation; competition; 100 μM unlabeled peptide, 5 μM DnaJB4, 20 nM Hsp72 tracer in JDP binding buffer; 30 min at room temperature; tracer displacement relative to DMSO control
T1 construct: DnaJB4, human, recombinant full length class B J-domain protein; the oligomeric state of DnaJB4 is not measured here; also called WT DnaJB4; class B JDP; source: E. coli BL21 (DE3) Rosetta, purified (Ni-NTA, TEV cleavage, SEC on Superdex 200); not shown: His6, N-terminal, cleaved

DnaJB4 [4] = target: T1, DnaJB4; assay: fluorescence polarisation; saturation binding; 20 nM fluorescent Hsp72 tracer, J-domain protein titrated in 2x dilutions (110-0.013 μM told for DnaJB4); 50 mM Tris, 15 mM NaCl, 1 mM DTT, 0.01% Triton X-100, pH 8.0; 30 min at room temperature

T1 sequence (Q9UDY4 whole entry): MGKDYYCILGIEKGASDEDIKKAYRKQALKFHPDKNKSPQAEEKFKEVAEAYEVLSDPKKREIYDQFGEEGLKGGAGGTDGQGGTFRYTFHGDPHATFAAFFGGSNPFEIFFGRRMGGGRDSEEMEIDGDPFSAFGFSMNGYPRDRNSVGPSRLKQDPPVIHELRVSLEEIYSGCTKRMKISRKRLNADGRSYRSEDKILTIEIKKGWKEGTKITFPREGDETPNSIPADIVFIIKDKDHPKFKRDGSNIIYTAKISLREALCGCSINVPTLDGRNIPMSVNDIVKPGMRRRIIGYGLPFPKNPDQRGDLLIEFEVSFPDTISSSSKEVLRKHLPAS

Binder: B1
- fold weakening of the affinity against the WT tracer [1]: 5 fold

B2: Hsp72 C-terminal 10-mer peptide, unlabeled, N-acetylated (peptide)
peptide: Ac-GSGPTIEEVD-OH
notes: last 10 residues of Hsp72/HSPA1A; also called WT Hsp72 peptide; source: synthetic peptide, bought: GenScript
- binding result [2]: binds

B3: Hsp72 10-mer peptide with P5 Ile replaced by Met (peptide, UniProt P0DMV8 632-641, looked up)
peptide: Ac-GSGPTMEEVD-OH
notes: also called P5 Met mutant; source: synthetic peptide, bought: GenScript
- binding result (DnaJB4 [3]): binds

B4: Hsp72 C-terminal peptide truncated of P10 and P9 (8-mer) (peptide, UniProt P0DMV8 634-641, looked up)
peptide: Ac-GPTIEEVD-OH
notes: source: synthetic peptide, bought: GenScript
- binding result (DnaJB4 [3]): binds

B5: Hsp72 C-terminal peptide truncated of P10 to P8 (7-mer PTIEEVD) (peptide)
peptide: Ac-PTIEEVD-OH
notes: last seven amino acids of Hsp72/HSPA1A; source: synthetic peptide, bought: GenScript
- binding result (DnaJB4 [3]): binds

Binder: B6
- binding result (DnaJB4 [4]): binds

B7: Hsp72 tracer FITC-Ahx-GSGPTIEEVD (peptide)
peptide: GSGPTIEEVD-OH
modifications: not fully specified (N-terminus); printed as FITC-Ahx-GSGPTIEEVD; also: methods name the dye 5-FAM, not FITC
notes: last 10 residues of Hsp72/HSPA1A; also called fluorescent Hsp72 tracer; Hsp72 probe; source: synthetic peptide, bought: GenScript
- Kd (DnaJB4 [4]): 1.84 µM and 1.65 µM
- binding result [2]: binds

B8: Hsp72 C-terminal peptide truncated of P10 (9-mer) (peptide, UniProt P0DMV8 633-641, looked up)
peptide: Ac-SGPTIEEVD-OH
notes: as for B4
- binding result (DnaJB4 [3]): binds
